Reference: IntAct's records for PubMed 7657594

B1: Vascular endothelial growth factor receptor 1 (Homo sapiens), P17948 (parent)
chain: MVSYWDTGVLLCALLSCLLLTGSSSGSKLKDPELSLKGTQHIMQAGQTLHLQCRGEAAHKWSLPEMVSKESERLSITKSACGRNGKQFCSTLTLNTAQANHTGFYSCKYLAVPTSKKKETESAIYIFISDTGRPFVEMYSEIPEIIHMTEGRELVIPCRVTSPNITVTLKKFPLDTLIPDGKRIIWDSRKGFIISNATYKEIGLLTCEATVNGHLYKTNYLTHRQTNTIIDVQISTPRPVKLLRGHTLVLNCTATTPLNTRVQMTWSYPDEKNKRASVRRRIDQSNSHANIFYSVLTIDKMQNKDKGLYTCRVRSGPSFKSVNTSVHIYDKAFITVKHRKQQVLETVAGKRSYRLSMKVKAFPSPEVVWLKDGLPATEKSARYLTRGYSLIIKDVTEEDAGNYTILLSIKQSNVFKNLTATLIVNVKPQIYEKAVSSFPDPALYPLGSRQILTCTAYGIPQPTIKWFWHPCNHNHSEARCDFCSNNEESFILDADSNMGNRIESITQRMAIIEGKNKMASTLVVADSRISGIYICIASNKVGTVGRNISFYITDVPNGFHVNLEKMPTEGEDLKLSCTVNKFLYRDVTWILLRTVNNRTMHYSISKQKMAITKEHSITLNLTIMNVSLQDSGTYACRARNVYTGEEILQKKEITIRDQEAPYLLRNLSDHTVAISSSTTLDCHANGVPEPQITWFKNNHKIQQEPGIILGPGSSTLFIERVTEEDEGVYHCKATNQKGSVESSAYLTVQGTSDKSNLELITLTCTCVAATLFWLLLTLFIRKMKRSSSEIKTDYLSIIMDPDEVPLDEQCERLPYDASKWEFARERLKLGKSLGRGAFGKVVQASAFGIKKSPTCRTVAVKMLKEGATASEYKALMTELKILTHIGHHLNVVNLLGACTKQGGPLMVIVEYCKYGNLSNYLKSKRDLFFLNKDAALHMEPKKEKMEPGLEQGKKPRLDSVTSSESFASSGFQEDKSLSDVEEEEDSDGFYKEPITMEDLISYSFQVARGMEFLSSRKCIHRDLAARNILLSENNVVKICDFGLARDIYKNPDYVRKGDTRLPLKWMAPESIFDKIYSTKSDVWSYGVLLWEIFSLGGSPYPGVQMDEDFCSRLREGMRMRAPEYSTPEIYQIMLDCWHRDPKERPRFAELVEKLGDLLQANVQQDGKDYIPINAILTGNSGFTYSTPAFSEDFFKESISAPKFNSGSSDDVRYVNAFKFMSLERIKTFEELLPNATSMFDDYQGDSSTLLASPMLKRFTWTDSKPKASLKIDLRVTSKSKESGLSDVSRPSFCHSSCGHVSEGKRRFTYDHAELERKIACCSPPPDYNSVVLYSTPPI

Variants of: B1
Details: with p85a_human PIK3R1, P27986
Chain of p85a_human PIK3R1, P27986 (P27986 whole entry): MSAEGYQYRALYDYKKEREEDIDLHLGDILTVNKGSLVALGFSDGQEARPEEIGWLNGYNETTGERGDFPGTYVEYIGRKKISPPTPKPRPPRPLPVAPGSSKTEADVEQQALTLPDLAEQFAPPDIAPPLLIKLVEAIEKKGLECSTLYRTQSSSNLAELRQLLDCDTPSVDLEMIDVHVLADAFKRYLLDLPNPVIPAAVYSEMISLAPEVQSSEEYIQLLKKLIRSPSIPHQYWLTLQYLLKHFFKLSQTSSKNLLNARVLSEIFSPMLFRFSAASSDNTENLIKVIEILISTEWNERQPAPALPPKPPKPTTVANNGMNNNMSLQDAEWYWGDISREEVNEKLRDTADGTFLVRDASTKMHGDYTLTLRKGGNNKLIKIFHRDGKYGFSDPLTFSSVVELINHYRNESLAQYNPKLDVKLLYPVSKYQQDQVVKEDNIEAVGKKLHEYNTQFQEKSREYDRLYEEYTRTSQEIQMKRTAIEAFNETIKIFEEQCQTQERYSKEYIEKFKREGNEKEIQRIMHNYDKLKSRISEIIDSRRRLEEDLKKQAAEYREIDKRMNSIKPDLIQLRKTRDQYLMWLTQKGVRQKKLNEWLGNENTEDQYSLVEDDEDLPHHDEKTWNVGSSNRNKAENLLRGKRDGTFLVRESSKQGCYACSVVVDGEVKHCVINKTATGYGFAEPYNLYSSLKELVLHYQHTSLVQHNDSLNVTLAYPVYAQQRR

| Variant | effect of a mutation on the interaction |
| --- | --- |
| Y1130F | decreasing interaction |
| Y1124F;Y1184F;Y1333F | with no effect |
| Y1309F | with no effect |
| Y1327F | with no effect |
| K861A | disrupting interaction |

Variants of: B1
Details: with p85a_human PIK3R1, P27986
Remark: another data set of the same source

| Variant | effect of a mutation on the interaction |
| --- | --- |
| Y1130F | with no effect |
| Y1213F | disrupting interaction |
